{"source": "patent US20170119877A1", "target": "murine VISTA (V-domain Ig suppressor of T cell activation) on spleen cells / Ly6C+CD11b+ MDSCs of B6 mice (mouse) (UniProt Q9D659)", "sequence (Q9D659 33-308)": "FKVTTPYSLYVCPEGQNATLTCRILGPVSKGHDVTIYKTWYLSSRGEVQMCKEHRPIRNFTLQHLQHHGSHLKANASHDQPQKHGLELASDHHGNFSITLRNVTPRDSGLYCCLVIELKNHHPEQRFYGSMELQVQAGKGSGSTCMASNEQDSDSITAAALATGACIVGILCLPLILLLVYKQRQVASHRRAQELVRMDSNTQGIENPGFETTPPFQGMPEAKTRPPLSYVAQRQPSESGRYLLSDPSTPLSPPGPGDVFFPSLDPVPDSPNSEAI", "assay": "cell-based or functional assay", "data": [{"substance": "anti-VISTA mAb (13F3) (antibody)", "values": [{"measurement": "blocking of MDSC suppression of B-cell responsiveness (3H-thymidine incorporation, α-CD40 + IL-4 stimulation)", "result": 50, "unit": "%"}, {"measurement": "blocking of MDSC suppression of B-cell responsiveness, corrected for control HIg", "result": 55, "unit": "%"}, {"measurement": "blocking of MDSC suppression of B-cell responsiveness, over several independent experiments", "result": 65, "unit": "%"}]}]}
